Here are results for 167 variants from the Human Domainome abundance scans (Beltran et al. 2025).

± gives the uncertainty stated by the source.

First the molecules themselves.
B1: REST corepressor 3, residues 87 to 134; numbered along this chain, Q9P2K3 (parent)
chain: DEWTVEDKVLFEQAFSFHGKSFHRIQQMLPDKTIASLVKYYYSWKKTR

This series covers variants of B1. Description: abundance fitness (aPCA) (normalised: wild type 0, dead -1); higher = more abundant; growth selection in yeast, the domain comes from the species named. Conditions: Homo sapiens.
K39T: the abundance fitness was -0.422 ± 0.23. For K39W the value was -0.67 ± 0.38; for W44S, -0.548 ± 0.29; for W44V, -1 ± 0.43. To W44R belongs -0.541 ± 0.16. Turning to W44G, the abundance fitness is -0.649 ± 0.14.

On to Q27K, for which the abundance fitness was -0.419 ± 0.29. As to Q27D, the abundance fitness is -0.62 ± 0.38. Consider Q27T, for which the abundance fitness is -0.406 ± 0.23. For the variant Q27S, the abundance fitness was -0.482 ± 0.16. To Y42Q belongs -0.117 ± 0.13. To Y42I belongs -0.11 ± 0.088; to Y42M, 0.311 ± 0.1. For the variant Y42W, the abundance fitness came out at 0.056 ± 0.076. In the case of Y42F, the abundance fitness was -0.555 ± 0.31. Y42S: the abundance fitness amounted to 0.102 ± 0.075. For the variant L29Q, the abundance fitness was -0.692 ± 0.3. For L29R the value was -0.771 ± 0.24; for L29K, -0.645 ± 0.44; for L29A, -0.832 ± 0.27. To L29C belongs -0.795 ± 0.46; to L29I, -0.315 ± 0.43. Turning to M28W, the abundance fitness is -0.589 ± 0.23. For M28S the value was -0.517 ± 0.19; for M28E, -0.616 ± 0.3. Regarding M28R, the abundance fitness is -0.618 ± 0.2. With W3G, the abundance fitness was -0.912 ± 0.33. Consider W3I, for which the abundance fitness is -0.465 ± 0.46.

Take V5R: the abundance fitness was -0.163 ± 0.11. For V5T the value was -0.436 ± 0.27; for V5M, -0.612 ± 0.31.

Regarding V5Q, the abundance fitness was -0.154 ± 0.15. For V5P the value was -0.393 ± 0.23; for K45Y, 0.357 ± 0.19. Take Q13D: the abundance fitness was -0.644 ± 0.46. Q13W: the abundance fitness was -0.742 ± 0.23. On to Q13C, for which the abundance fitness was -1.02 ± 0.46. Q13G: the abundance fitness is -0.948 ± 0.23. With Q13K, the abundance fitness was -0.458 ± 0.26. For V9H the value was -0.237 ± 0.2; for V9R, -0.167 ± 0.12. Regarding V9S, the abundance fitness was -0.143 ± 0.15.

With V9M, the abundance fitness was -0.592 ± 0.36. On to V9D, for which the abundance fitness was -0.258 ± 0.2. For V9F the value was -0.531 ± 0.38; for F11A, -0.715 ± 0.19; for K32S, -0.972 ± 0.096. Consider K32H, for which the abundance fitness is -0.45 ± 0.069. K32I: the abundance fitness was -0.978 ± 0.13. K32M: the abundance fitness is -0.799 ± 0.13. As to D31T, the abundance fitness is -0.316 ± 0.25.

With D31W, the abundance fitness was -0.539 ± 0.23. For D31A, the abundance fitness is -0.429 ± 0.13.

T4R: the abundance fitness was -0.634 ± 0.25. T4D: the abundance fitness is -0.53 ± 0.38. With L37K, the abundance fitness is -0.714 ± 0.37. With L37R, the abundance fitness is -0.885 ± 0.22. Turning to L37M, the abundance fitness is -0.711 ± 0.43. For the variant D7T, the abundance fitness is -0.708 ± 0.43. D7L: the abundance fitness is -0.796 ± 0.21.

In the case of D7V, the abundance fitness was -0.687 ± 0.21. For D7P, the abundance fitness was -0.411 ± 0.4.

Take D7W: the abundance fitness was -0.762 ± 0.36. As for D7N, the abundance fitness was -0.821 ± 0.23. For the variant D7E, the abundance fitness was -0.617 ± 0.34. On to D7Y, for which the abundance fitness was -0.686 ± 0.45. Consider D7S, for which the abundance fitness is -0.611 ± 0.17. F15C: the abundance fitness was 0.29 ± 0.27.

In the case of F15K, the abundance fitness was -0.585 ± 0.32. Consider F15V, for which the abundance fitness is -0.392 ± 0.12. With F15W, the abundance fitness was -0.637 ± 0.34.

In the case of F15T, the abundance fitness is -0.604 ± 0.45. To G19V belongs -0.805 ± 0.43; to T47P, -0.075 ± 0.16. For T47S the value was -0.463 ± 0.21. For Y41H the value was -0.52 ± 0.39. As for Y41A, the abundance fitness is -0.817 ± 0.38. Turning to Y41E, the abundance fitness is -0.491 ± 0.41. Regarding F22K, the abundance fitness is -0.551 ± 0.38.

Consider F22A, for which the abundance fitness is -0.692 ± 0.23. In the case of F22S, the abundance fitness was -0.897 ± 0.33. Regarding F22W, the abundance fitness is 0.52 ± 0.099. As to A14R, the abundance fitness was -0.635 ± 0.2. To A14W belongs -0.664 ± 0.21.

With A14S, the abundance fitness was -0.993 ± 0.36. With A14T, the abundance fitness was -0.609 ± 0.31.

In the case of A14F, the abundance fitness is -0.453 ± 0.33. Take V38R: the abundance fitness was -0.116 ± 0.069. Consider V38H, for which the abundance fitness is -0.723 ± 0.17. For E12T the value was -0.252 ± 0.27; for E12D, -0.07 ± 0.23.

As to P30L, the abundance fitness was -0.928 ± 0.38. For P30A the value was -0.811 ± 0.29.

In the case of P30M, the abundance fitness was -0.891 ± 0.48.

With P30K, the abundance fitness was -0.177 ± 0.46. As to F17L, the abundance fitness was -0.206 ± 0.12.

In the case of F17N, the abundance fitness was -0.208 ± 0.43. With F17T, the abundance fitness was 0.36 ± 0.11. For F17C the value was -0.853 ± 0.45; for F17A, -0.307 ± 0.17; for S16C, -0.607 ± 0.25.

With S16Q, the abundance fitness is -0.084 ± 0.36. Regarding S16G, the abundance fitness was -0.081 ± 0.1. In the case of S16W, the abundance fitness is -0.568 ± 0.25. For T33K the value was -0.109 ± 0.19; for T33L, -0.686 ± 0.19. With T33V, the abundance fitness is -0.776 ± 0.2. For E2K the value was 0.3 ± 0.17; for E2T, -0.302 ± 0.26; for E2Y, -0.208 ± 0.32.

For the variant A35G, the abundance fitness came to 0.045 ± 0.044. For A35Y, the abundance fitness is -0.451 ± 0.23. Regarding A35T, the abundance fitness is 0.073 ± 0.1. As to A35I, the abundance fitness was -0.062 ± 0.046. To H23P belongs -0.331 ± 0.18; to H23Y, -0.702 ± 0.47. Regarding H23S, the abundance fitness is -0.092 ± 0.17.

Take H23E: the abundance fitness was -0.07 ± 0.15. To H23V belongs -0.3 ± 0.15. For S36H, the abundance fitness is -0.241 ± 0.31.

S36W: the abundance fitness was -0.825 ± 0.42.

For S36G, the abundance fitness is -0.167 ± 0.093.

Turning to S36D, the abundance fitness is -0.219 ± 0.4. Take S36R: the abundance fitness is -0.478 ± 0.21.

Turning to R24G, the abundance fitness was -0.74 ± 0.37.

Regarding K46P, the abundance fitness was -0.782 ± 0.26. In the case of K46A, the abundance fitness is -0.053 ± 0.074.

In the case of K46W, the abundance fitness was -0.729 ± 0.13. Take K46E: the abundance fitness was -0.575 ± 0.22. K46T: the abundance fitness was -0.756 ± 0.2. For the variant I34C, the abundance fitness is -0.869 ± 0.2. With I34A, the abundance fitness was -0.845 ± 0.15. For the variant I34L, the abundance fitness was -0.419 ± 0.13. To I34E belongs -0.455 ± 0.14; to I34V, -0.747 ± 0.22; to I34M, -0.255 ± 0.062. In the case of Q26G, the abundance fitness was -0.757 ± 0.24. K20C: the abundance fitness was -0.337 ± 0.34. In the case of K20M, the abundance fitness was determined as 0.033 ± 0.22.

In the case of K20P, the abundance fitness is -0.704 ± 0.47. In the case of K20W, the abundance fitness was -0.551 ± 0.33. To Y40E belongs -0.318 ± 0.34. Y40V: the abundance fitness was -0.824 ± 0.32. In the case of L10M, the abundance fitness is 0.745 ± 0.12. For L10R the value was -0.213 ± 0.12; for S43D, 0.162 ± 0.28; for S43K, 0.134 ± 0.28.

In the case of S43M, the abundance fitness was -0.547 ± 0.17. For S43V, the abundance fitness was -0.076 ± 0.046. Turning to S21N, the abundance fitness was determined as 0.349 ± 0.16. With S21W, the abundance fitness was -0.107 ± 0.16. Regarding S21A, the abundance fitness is 0.221 ± 0.12. Take S21Q: the abundance fitness is 0.303 ± 0.15. For S21G, the abundance fitness is -1.12 ± 0.42. Turning to S21R, the abundance fitness amounted to 0.233 ± 0.11. Take E6V: the abundance fitness is -0.777 ± 0.33.

In the case of K8H, the abundance fitness was -0.594 ± 0.32. Take I25D: the abundance fitness was -0.531 ± 0.28. With I25Y, the abundance fitness is -0.522 ± 0.28. On to I25F, for which the abundance fitness was -0.838 ± 0.45.

I25H: the abundance fitness is -0.692 ± 0.44.

Take I25V: the abundance fitness was -0.74 ± 0.2. As to I25G, the abundance fitness was -0.903 ± 0.3. For R48G, the abundance fitness came to 0.024 ± 0.32.

For H18L, the abundance fitness is -0.731 ± 0.27.

Take H18W: the abundance fitness is -0.894 ± 0.47. H18G: the abundance fitness is -0.764 ± 0.25.
